This test has as its target GST-Fbw7 (residues 263 to 707)-Skp1 complex (UniProt Q969H0). Briefly: AlphaScreen or HTRF. (In general: Alpha assays give light when donor and acceptor beads are brought close together.)

In general, IC50 refers to the point on the concentration scale where inhibition reaches its midpoint. A higher IC50 goes with weaker potency in that assay.

Turning to “Myc T58 degron peptide, monophosphorylated (pT58)”, the IC50 stood at 1320 nM.

The record behind these values is PMC8797792.
